Target: recombinant GST-BNIP3 protein (rat BNIP3) (rat)
Experiment: SDS-PAGE and Western blot; GST-BNIP3 incubated with isolated rat liver mitochondria for 1 hour at 37°C in calcium-free buffer; mitochondrial and supernatant fractions blotted with a BNIP3 antibody; 90 kD band

Substance: recombinant GST-BNIP3 protein (rat BNIP3) (natural protein)
- stoichiometry N: 2
